Source: publication PMC2599807 (Biochemistry, 2008)

Target: the molecule itself
Assay: SEC + other: dynamic light scattering

B1: O. brevis BxmR (CPx-ATPase metal-regulated repressor), wild-type (natural protein, Oscillatoria brevis, UniProt Q76L30 1-136, looked up)
chain: MSPKSAVNGAISQPHQENDTPTCDRAHLVDCSRVGDIQTQVLNTAKAQRMAEFFSLLGDANRLRLVSVLAKQELCVCDLAATLGMSESAVSHQLRAMRAMRLVSYRKVGRQVFYSLLDRHVLELYRAVAEHLDEES
stoichiometry N: 2
